According to the supplement of paper PMC11246515:
± gives the standard deviation of the averaged measurements.

Assay: total protein half-life in vivo (active degradation + dilution); higher = more stable protein
[1] = wild type E. coli NCM3722, growth: C-lim chemostat, doubling time 3 h
[2] = wild type E. coli NCM3722, growth: C-lim chemostat, doubling time 12 h
[3] = E. coli NCM3722 delta-smpB, growth: N-lim chemostat, doubling time 6 h
[4] = wild type E. coli NCM3722, growth: C-lim chemostat, doubling time 6 h
[5] = wild type E. coli NCM3722, growth: N-lim chemostat, doubling time 12 h
[6] = wild type E. coli NCM3722, growth: P-lim chemostat, doubling time 6 h
[7] = wild type E. coli NCM3722, growth: P-lim chemostat, doubling time 12 h
[8] = E. coli NCM3722 delta-clpP delta-lon delta-hslV, growth: N-lim chemostat, doubling time 6 h
[9] = E. coli NCM3722 delta-hslV, growth: N-lim chemostat, doubling time 6 h
[10] = E. coli NCM3722 delta-lon, growth: N-lim chemostat, doubling time 6 h
[11] = wild type E. coli NCM3722, growth: N-lim chemostat, doubling time 6 h
[12] = E. coli NCM3722 delta-clpP, growth: N-lim chemostat, doubling time 6 h

Sequence: MSESAFKDCFLTDVSADTRLFHFLARDYIVQEGQQPSWLFYLTRGRARLYATLANGRVSLIDFFAAPCFIGEIELIDKDHEPRAVQAIEECWCLALPMKHYRPLLLNDTLFLRKLCVTLSHKNYRNIVSLTQNQSFPLVNRLAAFILLSQEGDLYHEKHTQAAEYLGVSYRHLLYVLAQFIHDGLLIKSKKGYLIKNRKQLSGLALEMDPENKFSGMMQ [P0A9E9]
- total protein half-life in vivo [1]: 1.56 h
- total protein half-life in vivo [2]: 2.53 h

Sequence: MSESLHLTRNGSILEITLDRPKANAIDAKTSFEMGEVFLNFRDDPQLRVAIITGAGEKFFSAGWDLKAAAEGEAPDADFGPGGFAGLTEIFNLDKPVIAAVNGYAFGGGFELALAADFIVCADNASFALPEAKLGIVPDSGGVLRLPKILPPAIVNEMVMTGRRMGAEEALRWGIVNRVVSQAELMDNARELAQQLVNSAPLAIAALKEIYRTTSEMPVEEAYRYIRSGVLKHYPSVLHSEDAIEGPLAFAEKRDPVWKGR
- total protein half-life in vivo [3]: 3.5 h
- total protein half-life in vivo [1]: 2.96 ± 0.038 h
- total protein half-life in vivo [4]: 4.96 ± 0.18 h
- total protein half-life in vivo [2]: 8.84 ± 0.32 h
- total protein half-life in vivo [5]: 5.66 h
- total protein half-life in vivo [6]: 5.25 ± 0.44 h
- total protein half-life in vivo [7]: 10.5 ± 0.97 h

Sequence: MSESLSWMQTGDTLALSGELDQDVLLPLWEMREEAVKGITCIDLSRVSRVDTGGLALLLHLIDLAKKQGNNVTLQGVNDKVYTLAKLYNLPADVLPR
- total protein half-life in vivo [8]: 6.59 ± 0.72 h
- total protein half-life in vivo [9]: 6.39 ± 0.34 h
- total protein half-life in vivo [10]: 5.57 ± 0.6 h
- total protein half-life in vivo [3]: 5.75 ± 0.51 h
- total protein half-life in vivo [1]: 2.98 ± 0.28 h
- total protein half-life in vivo [4]: 5.387 ± 0.018 h
- total protein half-life in vivo [2]: 10.9 ± 4.8 h
- total protein half-life in vivo [11]: 4.86 ± 0.53 h
- total protein half-life in vivo [5]: 10.2 h
- total protein half-life in vivo [6]: 5.332 ± 0.016 h
- total protein half-life in vivo [7]: 11.9 ± 0.66 h

Sequence: MSESVQSNSAVLVHFTLKLDDGTTAESTRNNGKPALFRLGDASLSEGLEQHLLGLKVGDKTTFSLEPDAAFGVPSPDLIQYFSRREFMDAGEPEIGAIMLFTAMDGSEMPGVIREINGDSITVDFNHPLAGQTVHFDIEVLEIDPALEA [P0AEM0]
- total protein half-life in vivo [8]: 4.8 h
- total protein half-life in vivo [12]: 4.79 h
- total protein half-life in vivo [10]: 5.05 h
- total protein half-life in vivo [3]: 3.85 ± 0.14 h
- total protein half-life in vivo [1]: 2.84 h
- total protein half-life in vivo [4]: 4.78 ± 0.094 h
- total protein half-life in vivo [2]: 9.21 ± 1.6 h
- total protein half-life in vivo [11]: 4.44 h
- total protein half-life in vivo [5]: 5.91 h
- total protein half-life in vivo [6]: 5.49 ± 0.13 h
- total protein half-life in vivo [7]: 11.6 h

Sequence: MSETASWQPSASIPNLLKRAAIMAEIRRFFADRGVLEVETPCMSQATVTDIHLVPFETRFVGPGHSQGMNLWLMTSPEYHMKRLLVAGCGPVFQLCRSFRNEEMGRYHNPEFTMLEWYRPHYDMYRLMNEVDDLLQQVLDCPAAESLSYQQAFLRYLEIDPLSADKTQLREVAAKLDLSNVADTEEDRDTLLQLLFTFGVEPNIGKEKPTFVYHFPASQASLAQISTEDHRVAERFEVYYKGIELANGFHELTDAREQQQRFEQDNRKRAARGLPQHPIDQNLIEALKVGMPDCSGVALGVDRLVMLALGAETLAEVIAFSVDRA [P0A8N7]
- total protein half-life in vivo [8]: 5.63 h
- total protein half-life in vivo [12]: 4.37 h
- total protein half-life in vivo [9]: 3.95 h
- total protein half-life in vivo [10]: 3.35 h
- total protein half-life in vivo [3]: 3.93 ± 0.61 h
- total protein half-life in vivo [1]: 2.71 ± 0.4 h
- total protein half-life in vivo [4]: 6.14 h
- total protein half-life in vivo [2]: 9.92 h
- total protein half-life in vivo [11]: 3.34 h
- total protein half-life in vivo [6]: 6.35 ± 0.51 h
- total protein half-life in vivo [7]: 14.41 ± 0.11 h

Sequence: MSEYRRYYIKGGTWFFTVNLRNRRSQLLTTQYQMLRHAIIKVKRDRPFEINAWVVLPEHMHCIWTLPEGDDDFSSRWREIKKQFTHACGLKNIWQPRFWEHAIRNTKDYRHHVDYIYINPVKHGWVKQVSDWPFSTFHRDVARGLYPIDWAGDVTDFSAGERIIS
- total protein half-life in vivo [8]: 5.68 h
- total protein half-life in vivo [1]: 1.93 h
